Target: T1, FHOD1 (human, UniProt Q9Y613 2-1164)
T1 sequence (looked up): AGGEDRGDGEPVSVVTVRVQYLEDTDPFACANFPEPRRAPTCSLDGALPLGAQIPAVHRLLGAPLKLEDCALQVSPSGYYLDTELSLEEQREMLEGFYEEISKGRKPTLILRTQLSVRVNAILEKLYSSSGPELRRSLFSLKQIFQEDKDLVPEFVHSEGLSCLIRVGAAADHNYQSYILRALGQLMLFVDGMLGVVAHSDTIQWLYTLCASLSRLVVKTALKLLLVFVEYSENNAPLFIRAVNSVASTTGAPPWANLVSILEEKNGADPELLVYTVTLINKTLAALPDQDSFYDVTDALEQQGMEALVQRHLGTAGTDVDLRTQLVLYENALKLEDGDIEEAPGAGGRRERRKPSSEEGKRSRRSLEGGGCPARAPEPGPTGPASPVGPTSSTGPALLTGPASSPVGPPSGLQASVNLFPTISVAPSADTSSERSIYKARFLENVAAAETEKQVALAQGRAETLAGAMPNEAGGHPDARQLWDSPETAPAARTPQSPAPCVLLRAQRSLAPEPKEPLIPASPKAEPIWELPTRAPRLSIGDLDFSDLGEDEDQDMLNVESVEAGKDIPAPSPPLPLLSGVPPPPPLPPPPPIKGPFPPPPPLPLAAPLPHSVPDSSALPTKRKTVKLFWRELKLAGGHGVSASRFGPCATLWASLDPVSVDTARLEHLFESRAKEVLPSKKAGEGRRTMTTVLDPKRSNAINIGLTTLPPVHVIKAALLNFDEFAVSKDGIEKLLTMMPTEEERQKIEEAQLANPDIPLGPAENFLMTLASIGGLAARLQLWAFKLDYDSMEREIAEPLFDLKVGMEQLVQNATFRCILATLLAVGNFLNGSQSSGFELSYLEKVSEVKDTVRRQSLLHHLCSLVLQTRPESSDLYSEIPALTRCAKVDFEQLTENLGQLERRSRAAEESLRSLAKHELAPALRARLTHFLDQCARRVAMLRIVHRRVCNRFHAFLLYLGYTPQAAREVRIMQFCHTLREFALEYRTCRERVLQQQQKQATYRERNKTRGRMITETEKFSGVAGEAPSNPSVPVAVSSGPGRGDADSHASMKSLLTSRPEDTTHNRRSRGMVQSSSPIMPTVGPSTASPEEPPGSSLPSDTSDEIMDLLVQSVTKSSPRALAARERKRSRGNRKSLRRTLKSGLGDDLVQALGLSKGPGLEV
Test: IP/MS, LZTR1 R810W-FLAG, U87
Summary of the method: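 Extracted peptides in 3% acetonitrile/0.1% formic acid ran on a 50 cm C18 column into an Orbitrap Fusion, with MaxQuant identification and spectral counting.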

B1: LZTR1 R810W-FLAG (other, human, UniProt Q8N653 1-840, looked up)
chain: MAGPGSTGGQIGAAALAGGARSKVAPSVDFDHSCSDSVEYLTLNFGPFETVHRWRRLPPCDEFVGARRSKHTVVAYKDAIYVFGGDNGKTMLNDLLRFDVKDCSWCRAFTTGTPPAPRYHHSAVVYGSSMFVFGGYTGDIYSNSNLKNKNDLFEYKFATGQWTEWKIEGRLPVARSAHGATVYSDKLWIFAGYDGNARLNDMWTIGLQDRELTCWEEVAQSGEIPPSCCNFPVAVCRDKMFVFSGQSGAKITNNLFQFEFKDKTWTRIPTEHLLRGSPPPPQRRYGHTMVAFDRHLYVFGGAADNTLPNELHCYDVDFQTWEVVQPSSDSEVGGAEVPERACASEEVPTLTYEERVGFKKSRDVFGLDFGTTSAKQPTQPASELPSGRLFHAAAVISDAMYIFGGTVDNNIRSGEMYRFQFSCYPKCTLHEDYGRLWESRQFCDVEFVLGEKEECVQGHVAIVTARSRWLRRKITQARERLAQKLEQEAAPVPREAPGVAAGGARPPLLHVAIREAEARPFEVLMQFLYTDKIKYPRKGHVEDVLLIMDVYKLALSFQLCRLEQLCRQYIEASVDLQNVLVVCESAARLQLSQLKEHCLNFVVKESHFNQVIMMKEFERLSSPLIVEIVRRKQQPPPRTPLDQPVDIGTSLIQDMKAYLEGAGAEFCDITLLLDGHPRPAHKAILAARSSYFEAMFRSFMPEDGQVNISIGEMVPSRQAFESMLRYIYYGEVNMPPEDSLYLFAAPYYYGFYNNRLQAYCKQNLEMNVTVQNVLQILEAADKTQALDMKRHCLHIIVHQFTKVSKLPTLWSLSQQLLLDIIDSLASHISDKQCAELGADI
notes: Stably expressed in U87 cells by lentivirus; also called LZTR1-FLAG-R810W; LZTR1 RW; not shown: FLAG tag
binding result: binds

From patent publication US20250262210A1 (TRUSTEES OF COLUMBIA UNIVERSITY IN THE CITY OF NEW YORK, published 2025)
